Source: the DeepSol protein solubility set

Assay: soluble on expression in E. coli; label from the status in PepcDB or PDB records

Soluble on expression in E. coli, soluble:
DLLSWFKGNDRPPAPAGKALEFSKPAAWQNNLPLTPADKVSGYNNFYEFGLDKADPAANAGSLKTDPWTLKISGEVAKPLTLDHDDLTRRFPLEERIYRMRCVEAWSMVVPWIGFPLHKLLALAEPTSNAKYVAFETIYAPEQMPGQQDRFIGGGLKYPYVEGLRLDEAMHPLTLMTVGVYGKALPPQNGAPVRLIVPWKYGFKGIKSIVSIKLTRERPPTTWNLAAPDEYGFYANVNPYVDHPRWSQATERFIGSGGILDVQRQPTLLFNGYADQVASLYRGLDLRENFLEHHHHHH
MKNENENEICFIAGVGDSNGYGWGIAKELSKRNVKVIFGVWPPVYNIFIKNLESGKFDKDMIINNDNSKRMQILDVLPLDAGFDNYDDIDEDTKNNKRYNNLKNYSIEEVANLIYNKYGKISMLVHSLANGREVQKSLLDTSRDGYLDAISKSSYSLISLCKHFCKFMNSGGSVVSLTYQASQKVVPGYGGGMSSAKAALESDTRVLAYYLGRKYNIRINTISAGPLKSRAATAINKFNNNQKNNMNSSGETDKQNYSFIDYAIDYSEKYAPLKKKLLSTDVGSVASFLLSKESSAVTGQTIYVDNGLNIMFGPDDLFQSSDS
MAVPQLYYFTIRGFGEYIRLLFLDNGIKFEDIRFDYEGNEWQEFKKGMLLGQLPCLKVDGQEIVQTGAIMRHLGRVHGLNGSNEQEATFLDMFFEGVRDVRMKYVRYIYYDEGTREDCVNKTIPEALVKLEELFKAHSGDFIIGNKISYADYILFEELDVYHVLDANILDKFPTLKSFWERMWKRPNLNAYLEKRKADKVWINAIEKGMN
GPGSMRGKRFATPTGQPGMRQGGYTQLHAVSASTSPGRRPTAKHCAPSASQKELFTSQALSRPRPTEAHALSSSTPERRFQAVQRSSTQSSMPSTSVHHMLNELVDLSHSIAALLEQGQVLSLTAAPSAADRQQEASLKTQEIERIVRRVEAHFVDRIQSLETLNASLSEEVRQLRGALATQRTNGAEGRANVVQDIRGGDLQEDSKTLDACERASWDEPGNGAASSEVEHLRRVLMAEKRQRLRVEEQTQSLTEQHAKVVGTLERRLKKQEEQLYDLIAAIDRGYGGGSVTTSASPTRCTERGSSHRLPTPRHLLRQQLAQHQQTQRALQQYKENLRLEPPSPAGSDEVSATMKELGLDDVRRTLELIRSSKPLTVQEHHHDQEETHTAPAVCSPPHTARDGPAVVHSPRVCSQVPPPAADRAACTSGTEVDEITAFLENITKELESLDSQ
PVSQPDAPGHQRKVVSWIDVYTRATCQPREVVVPLTVELMGTVAKQLVPSCVTVQRCGGCCPDDGLECVPTGQHQVRMQILMIRYPSSQLGEMSLEEHSQCECRPKKKDSAVKPDSPRPLCPRCTQHHQRPDPRTCRCRCRRRSFLRCQGRGLELNPDTCRCRKLRR
MSNILFKPTHLPISKPFHALLANILSEHQAKSEVQATSKEVVMNFRDSSYSAEDGGFHPVEIALSQSSDGQWCIEYITDFAYVGNHFPELERCLDFDFQRGDFFTAYHGWNPIVGNRDARELYQLWESNFLAYVATEAFDDISLTSAP

Soluble on expression in E. coli, not soluble:
TGKFKWDLGGNISFVKNKLLSLIEGSEMYVVPSSGSNLLGGSMHALINGEPISTFYMLKMEGIYQRDDEVPAKLYAKGVRAGDVRYFDYNEDGDITDADRVNVGKAIPDFYGGITSNFSYKGFDLSLFGQFSVGGKVMAAWRGVNGSEGTDHLGLALSNVKVGDRGESVEQFFNISKEVANGYWRGEGTSNSIPRPVRIGVHTGYDYDYNVQTSTRYLEDASYFKLKTVTLGYTLPESITKKIHVNSLRFYVSADNLLAFTKYSGYDPETSFSGSPGDSNYGVDFGLQPVLRTFIFGLNLNF
MSLKRIYGSNRYETSIMVSKEGWDKSSYAVISRGDNFADALCAVPLSKKYNAPILLIGKDKLNNNLKSELKRLNVSKVFITGGEGVISKTLEGEIKNIPNIKEVKRLGGKDRYETSKLIAESVGCNGEIVVTAGTNSSDTLSISPIAANKNMPILLTAKDKNLMQKYLKSNKVNKTFVIGGEKCVSKEIENILPNVERIYGENRYETNEKIIKRFSNSLDFKNVYIALAQSQRGDEFADALSSAALAAQKNSPIILIYKDIYKNTKDILNTKLSNESIVSILGGEKLISDNILDNLAISKNEGHHHHHH
MKENPSFLKEQIITYLGNKRALLSFLNNGFKVAKKELGKDKFSFCDIFSGSGVVSRFAKAHSNYILANDLEDYSKLINECYLANKDKDLLQNIKKYYKNLIQNLDFQKGFISELYAPKDDDDIKKNERVFYTFKNALYLDTIRQKIENEIPKELRHFFIAPLIYEASVHSNTSGVFKGFYKGKDGIGKFGGEGQNALKRIKGEIELKMPIFSNFSCEFEVMQKDANMLAKELDFFDVVYLDPPYNQHPYSSNYFMLNLIANYKKPEEISKISGIPKDWNRSTFNKSKFAQDALFELINDLKARVILLSYNCEGFVKKEIFLKRLSTLGKCRILEQKYNTFRASRNLKNRNIHLHEQLYILVKN
MGSDKIHHHHHHMTATASSSPKLRVDTRGTNELPPHLDENLLTPRFYVTEFKKAAKTELTDAREEFEAMLSEMKADYNCTHFDRKASLDRLQELPQKAKETYESYLVRSVISEFSGFLLFKEISNRLKKEGNRDLGKLFQFLARDEARHAGFLSRALVAEGIEVDLPHLGGKRAATWFPISWVIYSVYLSEKIGYWRYILMDRHLKANPDQAFAPLFDFFEPWCQDENRHGDCFTVMMRCWPGITKGFRGKLLSRFFLWSVFLTHTLTVCERGEFYELLGIDPKEFDEEVIKRTNHTSKNAFPWVFNLDDNKFWDLRNKIIESFRAFVGAKGLTKPVKFVKFATLIFKQFALPMEKTDALRYDKNVNFTGQDILNFWTDK
MGSDKIHHHHHHMKLFRPVDGRPNSGSSCILRSYYIIMAYMSMPIASQRQEKDMTEDIRSRIGLRPVINVSGTMTSLGASIVVPEAVEAMAAILPQFVEINDLQRKASAIIARLTGGEAGFVTASCSSGISLAVAGAITGNNLLAIEKLPDIAPEKNEVLVQMGHVVSYGAPVDQAIRLGGGKVVLVGQATSTHRYHMENAITEKTAAAVYVVSHHVVDYGLLHLSEFVEIAHAKGVPVIVDAASEYDLELFLATGADVVLYSGHKFLGGPTSGIVAGSKELVRHAFLQNMGIGRGMKVGKESIYGVMAALEAWEKRDHAGIRERETGYLNLWKKTLDGRPGVTALIEPDPTNNPLDRMRVIIDADEAHITAWDLTTALARGNPPIITRDHEVEHRYFYLDPCNLHPGQETIVASRLAEELDKARASNEMIATPFEDRSRHRFDGMLCWPD
MTSKADYLKKYLSPASGDIEKKKKKKNKDKNKPSGLRLIEEDAFLSVDAAKTRDIGSDEEREEIEVLKQSVKKAKVVHGFKQTFAEVDAPKVIKPEPLSPDNSPPRGKRQRHDSDNSPPRPSRKRNDSDNSPPRPSRNRHDSDKDNSPPRRRRHDSDNSPPRPSRKIREESPSARNRRSPPRTRRDRHDSDNSPPRNRSRRDSDNSPPRRRPSSPARRRKDDDLSPPRKSRKIEEPKKIKKEEPDSDTETSGRTLEGKRSGLQSARDLKEESDKLRAKNSKMFEEMDTSVSGRFADTVYRQKQTKKKGKDSEEDQAKKERETKKTEELKEKYKSWNKGVAQIEDRRAQLEEMARVAAEPMARARDDDAMNAHLKEVLHAADPMANMIQKKRRDTAIDRGELVYPSYHGHFVPNRFGIAPGYRWDGVDRSNGFEGKLAKTENTKTANQSEYYKSIAEYE
MGSDKIHHHHHHMINPAHFDLQSLRIFLQVAQSGSLTKAAEKFHITLSALSKRIAELERTVDCALFIRMPRGLTLTPAGKELVNLAGNVLSNVERMASEMNDYAVGVRGHVHMWANTSAIIQFLPQDLASFLPTRPLIRINLEEKLSKTVVTALAMGEADIGIFVDNVGSQGVEKIPYRKDKLVVLVPPQHPLSALSDVSFNDTLGYDYVGLNSGSSLLKQLKDASDELGRVLRLRVQVSSFDGICRMIEAGLGISVLPEGAIRPEVLGTGLRAINLTDEWASRQLWLGVKSGAILQPEVTNLLTHLRQCGA
MEITPKRYWRRWRGYEKLDGSSETTSGRRKGKRVKMDPTRKKRFWRIKIVPKLRILKTASPKKFLVWLRDSYVKMMMRLANSRVVGSSGYGGSGFGSGQMKEYDEKMLVEIYKSILMVQAQGNLVHRDTPNNNLKLPSEPAVVSVVSSVVTC
MDLEAPPTLLQLAAQCTVRKEVLTISVLQNLPMKLFPPLFKEADILRKAKMIKLLVEYWPYPSLLVGLLIDKTNLETFQAILEGVGTWLKRKYRPRMGKLQVVDLRNGHHDFWDMLAGREGGDQLVETMPEKQEVEGHSRRQRLRVFSDLSFKSSRHEDKQQTHLLQWAKDREGFLHLCCEKLEIGALGVSKVKKVLKLLQPEFIKELELNTVGNLSKLTKLVPCISKMRNLQKLMLVRIFGRHTYTPLEERNVTKILSLFPKLSYLQHLTIDDVYFLRDHMNELFRYLEAPLLSLTITLCQISQSDLESFSQHWNYGQLKHLCLKGVSLSTLNVTPLKFFLESVADTLQTLELEDCRMKDSHLRILLPALTKCTRLTSINFYDNNISRDVLQDLLHRTANMSQLTMELYPAPVEVYNEWSYVQVERFSQLCAELMNTLITVRRPKSVCFGTYSCYDCDTHCIYGNQTTFCECLE
MNYAGSEKRVAIEEKKKIVEFLWKRNEEQEIVGHIYIGRIVRTIAGMNAAFVNIGLEKHAYLSYDDVPSAYRIHEGQAVLVQVVKEAIDTKGPKLTANIEFTGKYVVYMPYDEMRAVSRKIKNNKRRQQLLQIEVEGTGGYIFRSASEKGEIEEIQAEMQRLQQLYEELKRKEEQGKAPLLLHRPATFLDRVFQENPIETIEKVVVDTRSIVKELEEKVGKEKVSFYNEKSSMFNHFGIEREIEKALQKIVWLPNGAYLIVEQMETMTVIDVNTGKFTGKQNLQDTVLRTNELAAEEIARQLRLRDIGGMILIDFINMKRREDKEKVRECLVAAMQNDRTYTRVLGFTELGILEMTRKRKKHSLRDVLLEECAPCKATGYVMSYETIAYELERELLTYGNIEDEAVLISAPKELQKQFLQKELQKNIPFEIYFKDDMIEKYAIIRFGSKKEIVERKNS
MADDKDVLRDVWFGRIPACFTLSPDETTEREAEPYYLLLPRVSYLTLVTDKVKKHFLKVMKAEDVEEMWFEHEGTPLKWHYPIGVLFDLHASNSALPWNVTVHFKNFPEQDLLHCSTNSVIEAHFMSCIKEADALKHKGQVINDMQKKDHKQLWMGLQNDKFDQFWAMNRKLMEYPTEEGGFRYIPFRIYQTMSDRPFIQTLFRPVSSEGQALTLGDLLKELFPAAIEDEPKKFQVMIHGIEPLLETPIQWLSEHLSHPDNFLHISIIPAPSD
MHFADPREAREFLAAHPEVRSIELFLIDANGVPRGKLLHRDELLAVYESGRPLPSTILGLTINGDDVEETGLVWDVGDADCWTFPLPGSLTLQPWRQSPTGQVQVSMHPELGLPAAAGDPRHVLQRVIHSLQAEGFHPVMAVELEFYLLDRERDSDGRPLPALQMNGQRPRATQVYGVYELEQLQPFLDDLYAACEAQGLPARTAISEYAPGQVEITLQHRFDTLQAIDEGVRYKRLVKGVANRHGLQACFMAKPFADLSGSGLHLHVSLADAAGNNLFASEDPAGTPLLRQAIGGMKACLLESLALFCPNANSFRRFQANSYAPLAPTWGINNRTVSLRVPGGPASSRHIEHRICGADANPYLAAAALLAAVRLGIRERLDPGAPITGNGYAQATQALPSDWLTALRALEGSAWAREALGEDFLKIYLAIKQAEYRAFMGEVGE
